Laboratory results reported in patent US20220211857A1, “POLYPEPTIDE DERIVATIVE AND PREPARATION METHOD THEREOF” (NINGBO KUNPENG BIOTECH CO., LTD., priority 2019, published 2022).
Where a SMILES comes first, the peptide text is derived from it. The star is where a group is joined. X4 = O=C(O)CCCCCCCCCCCCCCC(=O)NC(CCC(=O)NCCOCCOCCn1cc(CCOC(=O)*)nn1)C(=O)O

Experiments:
[1] = Pharmacokinetics studies of GLP-1 derivatives in rats (single subcutaneous injection, LC-MS/MS, NCA); details: rat; for half-lives (in words): experiment of Example 8 repeated in the same way
Protocol: The experiment comprised a reference substance group and a test substance group. GLP-1 and L6-GFA16-GLP-1 were injected subcutaneously with a single administration of 0.5 mg/kg, respectively. Animals in each group were collected blood at 15 min, 30 min, 1 h, 2 h, 3 h, 5 h, 7 h, 12 h, and 24 h after administration. LC-MS/MS analysis method was used to detect contents of different GLP-1 analogues.

[2] = Pharmacokinetics studies of PTH-1 derivatives in rats (single subcutaneous injection, LC-MS/MS, NCA); format: in vivo; details: rat, experiment of Example 10 repeated in the same way
Protocol: PTH-1 and L6-GFA16-PTH-1 were injected subcutaneously with a single administration of 8.6 μg/kg, respectively. Animals in each group were collected blood at 0 min, 5 min, 15 min, 30 min, 1 h, 2 h, and 4 h after administration. […] Exposure time of drugs in vivo was prolonged and exposure doses were increased.

Compound | half-lives (in words) [1] | other results
CC[C@H](C)[C@H](NC(=O)[C@H](Cc1ccccc1)NC(=O)[C@H](CCC(=O)O)NC(=O)[C@H](CCCCNC(=O)OCCc1cn(CCNC(=O)COCCOCCNC(=O)COCCOCCNC(=O)CCC(NC(=O)CCCCCCCCCCCCCCC(=O)O)C(=O)O)nn1)NC(=O)[C@H](C)NC(=O)[C@H](C)NC(=O)[C@H](CCC(N)=O)NC(=O)CNC(=O)[C@H](CCC(=O)O)NC(=O)[C@H](CC(C)C)NC(=O)[C@H](Cc1ccc(O)cc1)NC(=O)[C@H](CO)NC(=O)[C@H](CO)NC(=O)[C@@H](NC(=O)[C@H](CC(=O)O)NC(=O)[C@H](CO)NC(=O)[C@@H](NC(=O)[C@H](Cc1ccccc1)NC(=O)[C@@H](NC(=O)CNC(=O)[C@H](CCC(=O)O)NC(=O)[C@H](C)NC(=O)[C@@H](N)Cc1c[nH]cn1)[C@@H](C)O)[C@@H](C)O)C(C)C)C(=O)N[C@@H](C)C(=O)N[C@@H](Cc1c[nH]c2ccccc12)C(=O)N[C@@H](CC(C)C)C(=O)N[C@H](C(=O)N[C@@H](CCCCN)C(=O)NCC(=O)N[C@@H](CCCNC(=N)N)C(=O)NCC(=O)O)C(C)C (stereo partly shown) [L6-GFA16-GLP-1] | – | Exposure time in vivo ([1]; s.c. 0.5 mg/kg, versus GLP-1): prolonged; exposure doses ([1]; s.c. 0.5 mg/kg, versus GLP-1): increased significantly
CC[C@H](C)[C@H](NC(=O)[C@H](Cc1ccccc1)NC(=O)[C@H](CCC(=O)O)NC(=O)[C@H](CCCCNC(=O)OCCc1cn(CCOCCOCCNC(=O)CCC(NC(=O)CCCCCCCCCCCCCCC(=O)O)C(=O)O)nn1)NC(=O)[C@H](C)NC(=O)[C@H](C)NC(=O)[C@H](CCC(N)=O)NC(=O)CNC(=O)[C@H](CCC(=O)O)NC(=O)[C@H](CC(C)C)NC(=O)[C@H](Cc1ccc(O)cc1)NC(=O)[C@H](CO)NC(=O)[C@H](CO)NC(=O)[C@@H](NC(=O)[C@H](CC(=O)O)NC(=O)[C@H](CO)NC(=O)[C@@H](NC(=O)[C@H](Cc1ccccc1)NC(=O)[C@@H](NC(=O)CNC(=O)[C@H](CCC(=O)O)NC(=O)[C@H](C)NC(=O)[C@@H](N)Cc1c[nH]cn1)[C@@H](C)O)[C@@H](C)O)C(C)C)C(=O)N[C@@H](C)C(=O)N[C@@H](Cc1c[nH]c2ccccc12)C(=O)N[C@@H](CC(C)C)C(=O)N[C@H](C(=O)N[C@@H](CCCCN)C(=O)NCC(=O)N[C@@H](CCCNC(=N)N)C(=O)NCC(=O)O)C(C)C (stereo partly shown) [L2-GFA16-GLP-1] | significantly prolonged | –
CC[C@H](C)[C@H](NC(=O)[C@H](CCC(=O)O)NC(=O)[C@H](CO)NC(=O)[C@@H](NC(=O)[C@@H](N)CO)C(C)C)C(=O)N[C@@H](CCC(N)=O)C(=O)N[C@@H](CC(C)C)C(=O)N[C@@H](CCSC)C(=O)N[C@@H](Cc1c[nH]cn1)C(=O)N[C@@H](CC(N)=O)C(=O)N[C@@H](CC(C)C)C(=O)NCC(=O)N[C@@H](CCCNC(=N)N)C(=O)N[C@@H](Cc1c[nH]cn1)C(=O)N[C@@H](CC(C)C)C(=O)N[C@@H](CC(N)=O)C(=O)N[C@@H](CO)C(=O)N[C@@H](CCSC)C(=O)N[C@@H](CCC(=O)O)C(=O)N[C@@H](CCCNC(=N)N)C(=O)N[C@H](C(=O)N[C@@H](CCC(=O)O)C(=O)N[C@@H](Cc1c[nH]c2ccccc12)C(=O)N[C@@H](CC(C)C)C(=O)N[C@@H](CCCNC(=N)N)C(=O)N[C@@H](CCCCNC(=O)OCCc1cn(CCOCCOCCNC(=O)CCC(NC(=O)CCCCCCCCCCCCCCC(=O)O)C(=O)O)nn1)C(=O)N[C@@H](CCCNC(=N)N)C(=O)N[C@@H](CC(C)C)C(=O)N[C@@H](CCC(N)=O)C(=O)N[C@@H](CC(=O)O)C(=O)N[C@H](C(=O)N[C@@H](Cc1c[nH]cn1)C(=O)N[C@@H](CC(N)=O)C(=O)N[C@@H](Cc1ccccc1)C(=O)O)C(C)C)C(C)C (stereo partly shown) [L2-GFA16-PTH] (H-SVSEIQLMHNLGRHLNSMERVEWLRK(X4)RLQDVHNF-OH) | – | half-lives (in words) [2]: significantly prolonged
CC[C@H](C)[C@H](NC(=O)[C@H](Cc1ccccc1)NC(=O)[C@H](CCC(=O)O)NC(=O)[C@H](CCCCNC(=O)OCCc1cn(CCOCCOCCOCCNC(=O)CCC(NC(=O)CCCCCCCCCCCCCCC(=O)O)C(=O)O)nn1)NC(=O)[C@H](C)NC(=O)[C@H](C)NC(=O)[C@H](CCC(N)=O)NC(=O)CNC(=O)[C@H](CCC(=O)O)NC(=O)[C@H](CC(C)C)NC(=O)[C@H](Cc1ccc(O)cc1)NC(=O)[C@H](CO)NC(=O)[C@H](CO)NC(=O)[C@@H](NC(=O)[C@H](CC(=O)O)NC(=O)[C@H](CO)NC(=O)[C@@H](NC(=O)[C@H](Cc1ccccc1)NC(=O)[C@@H](NC(=O)CNC(=O)[C@H](CCC(=O)O)NC(=O)[C@H](C)NC(=O)[C@@H](N)Cc1c[nH]cn1)[C@@H](C)O)[C@@H](C)O)C(C)C)C(=O)N[C@@H](C)C(=O)N[C@@H](Cc1c[nH]c2ccccc12)C(=O)N[C@@H](CC(C)C)C(=O)N[C@H](C(=O)N[C@@H](CCCCN)C(=O)NCC(=O)N[C@@H](CCCNC(=N)N)C(=O)NCC(=O)O)C(C)C (stereo partly shown) [L3-GFA16-GLP-1] | significantly prolonged | –
CC[C@H](C)[C@H](NC(=O)[C@H](Cc1ccccc1)NC(=O)[C@H](CCC(=O)O)NC(=O)[C@H](CCCCNC(=O)OCCc1cn(CCOCCOCCOCCOCCNC(=O)CCC(NC(=O)CCCCCCCCCCCCCCC(=O)O)C(=O)O)nn1)NC(=O)[C@H](C)NC(=O)[C@H](C)NC(=O)[C@H](CCC(N)=O)NC(=O)CNC(=O)[C@H](CCC(=O)O)NC(=O)[C@H](CC(C)C)NC(=O)[C@H](Cc1ccc(O)cc1)NC(=O)[C@H](CO)NC(=O)[C@H](CO)NC(=O)[C@@H](NC(=O)[C@H](CC(=O)O)NC(=O)[C@H](CO)NC(=O)[C@@H](NC(=O)[C@H](Cc1ccccc1)NC(=O)[C@@H](NC(=O)CNC(=O)[C@H](CCC(=O)O)NC(=O)[C@H](C)NC(=O)[C@@H](N)Cc1c[nH]cn1)[C@@H](C)O)[C@@H](C)O)C(C)C)C(=O)N[C@@H](C)C(=O)N[C@@H](Cc1c[nH]c2ccccc12)C(=O)N[C@@H](CC(C)C)C(=O)N[C@H](C(=O)N[C@@H](CCCCN)C(=O)NCC(=O)N[C@@H](CCCNC(=N)N)C(=O)NCC(=O)O)C(C)C (stereo partly shown) [L4-GFA16-GLP-1] | significantly prolonged | –
CC[C@H](C)[C@H](NC(=O)[C@H](Cc1ccccc1)NC(=O)[C@H](CCC(=O)O)NC(=O)[C@H](CCCCNC(=O)OCCc1cn(CCNC(=O)CCC(NC(=O)CCCCCCCCCCCCCCC(=O)O)C(=O)O)nn1)NC(=O)[C@H](C)NC(=O)[C@H](C)NC(=O)[C@H](CCC(N)=O)NC(=O)CNC(=O)[C@H](CCC(=O)O)NC(=O)[C@H](CC(C)C)NC(=O)[C@H](Cc1ccc(O)cc1)NC(=O)[C@H](CO)NC(=O)[C@H](CO)NC(=O)[C@@H](NC(=O)[C@H](CC(=O)O)NC(=O)[C@H](CO)NC(=O)[C@@H](NC(=O)[C@H](Cc1ccccc1)NC(=O)[C@@H](NC(=O)CNC(=O)[C@H](CCC(=O)O)NC(=O)[C@H](C)NC(=O)[C@@H](N)Cc1c[nH]cn1)[C@@H](C)O)[C@@H](C)O)C(C)C)C(=O)N[C@@H](C)C(=O)N[C@@H](Cc1c[nH]c2ccccc12)C(=O)N[C@@H](CC(C)C)C(=O)N[C@H](C(=O)N[C@@H](CCCCN)C(=O)NCC(=O)N[C@@H](CCCNC(=N)N)C(=O)NCC(=O)O)C(C)C (stereo partly shown) [L0-GFA16-GLP-1] | significantly prolonged | –
